According to the supplement of paper PMC11780869:

Tested on: Bacillus subtilis
Experiment: cleaved RNA product abundance (RNA/gDNA barcode ratio) relative to median wild-type variant (ratio to wild type); higher = more accumulation of the downstream cleavage product
Summary of the method: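 Cleaved product abundance is expressed as the RNA:gDNA barcode ratio per construct, scaled to the median construct carrying the unmutated site. The constructs were barcoded, mutagenized RNase Y cleavage-site windows in truncated aprE or tetM reporter mRNAs integrated into the B. subtilis chromosome. Cultures grew in LB at 37°C from OD600 0.0003 to 0.3 before cleaved RNA was gel-selected and barcode-sequenced.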

[1] = experiment (reporter, strain, medium): exp 2b: truncated aprE reporter, strain BJT200, cleavage site: cggR-gapA (positions -7 to +36 mutated)
[2] = experiment (reporter, strain, medium): exp 4a: truncated aprE reporter, strain BJT201 with 2% xylose (RNase J1 expressed), cleavage site: cggR-gapA (positions -7 to +36 mutated)
[3] = experiment (reporter, strain, medium): exp 8a: truncated aprE reporter, strain BJT201 with 2% xylose (RNase J1 expressed), cleavage site: glnRA (positions -5 to +31 mutated)

| Sequence | cleaved RNA product abundance [2] | cleaved RNA product abundance [3] | further results |
| --- | --- | --- | --- |
| ACAGACGAAGGAGCCGCAAAGATGTTATTAAGGGATGAATAATCCGTCAATATAAATATCTCTCACTTATTTAAA | 0.2 |  | cleaved RNA product abundance [1]: 0.113 |
| ACAGACGAAGGAGCCGCAAAAAAGTTATTAAGGGATGAATAATCCCCCAATATAAATATCTCTCACTTATTTAAA | 0.35 |  | cleaved RNA product abundance [1]: 0.238 |
| CGACATGTCCCGCTTCTTTCATTAATCCTTTAGCAACTGTTTTGCTATATACAATTACCTTTTAAGAGGAGGAAT |  | 0.889 |  |
| ACAGACGAAGGAGCCGCAAAGAAGTTATTAACGGATGAATAATCCCTCAATCTAAATATCTCTCACTTATTTAAA | 0.102 |  |  |
| ACAGACGAAGGAGCCGCAAAGAAGTTATTAAGAGATGAATAATCCATCAATATAAATATCTCTCACTTATTTAAA | 0.19 |  | cleaved RNA product abundance [1]: 0.142 |
| ACAGACGAAGGAGCCGCAAAGAAGTTATCAAGGGATGAATAATCCCTCATTATAAATATCTCTCACTTATTTAAA |  |  | cleaved RNA product abundance [1]: 0.216 |
| CGACATGTCCCGCTTCTTTCATTAATCAGTTAGCAACTGTTGTGCTATATACATTTACCTTTTAAGAGGAGGAAT |  | 0.354 |  |
| ACAGACGAAGGAGCCGCAAAGAAGTTATTAAGCGATGAATAATCCCTCAATATAGATATCTCTCACTTATTTAAA | 0.0736 |  |  |
| CGACATGTCCCGCTTCTTTCATTAATGCGTTAGCAAATGTTTTGCTATATACATTTACCTTTTAAGAGGAGGAAT |  | 0.927 |  |
| ACAGACGAAGGAGCCGCAAAGAAGTTATTAAGGGATGCACAATCCCTCAATATAAATATCTCTCACTTATTTAAA | 0.547 |  |  |
| ACAGACGAAGGAGCCGCAAAGAAGTTATTAAGGGATGAATAATCCCTAAATATAAATAACTCTCACTTATTTAAA | 0.442 |  |  |
| ACAGACGAAGGAGCCGCAAATAAGTTATTAAGGGATGAATAAGCCCTCAATATAAATATCTCTCACTTATTTAAA | 0.476 |  |  |
| CGACATGTCCCGCTTCTTTCATTAATCGGTTAACAAATGTTGTGCTATAGACATTTACCTTTTAAGAGGAGGAAT |  | 0.209 |  |
| CGACATGTCCCGCTTCTTTCATTAATCCGTTAGAAAATGTTTTGCTATAAACATTTACCTTTTAAGAGGAGGAAT |  | 0.166 |  |
| CGACATGTCCCGCTTCTTTCATTAATCCCGTTAGCAACTGTTTTGCTATATACATTTACCTTTTAAGAGGAGGAA |  | 1.01 |  |
| CGACATGTCCCGCTTCTTTCATTAATCCGTAAGCAACTGTTTTGTTATATACATTTACCTTTTAAGAGGAGGAAT |  | 0.391 |  |
| CGACATGTCCCGCTTCTTTCATTATTCAGTTAGCAACTGTTTTGCTATATACATTTACCTTTTAAGAGGAGGAAT |  | 1.38 |  |
| ACAGACGAAGGAGCCGCAAAGAAGTTATTAAGGGAAGAATAATCCCTCAATATAAATTTCTCTCACTTATTTAAA |  |  | cleaved RNA product abundance [1]: 0.471 |
| ACAGACGAAGGAGCCGCAAAGAAGTTATTAAGGGATGAGTAATCACTCAATATAAATATCTCTCACTTATTTAAA | 0.264 |  |  |
| ACAGACGAAGGAGCCGCAAAGAAGTTATTATGGGACGAATAATCCCTCAATATAAATATCTCTCACTTATTTAAA | 0.174 |  |  |
| ACAGACGAAGGAGCCGCAAAGAAGTTATTAAGGGATTAAAAATCCCTCAATATAAATATCTCTCACTTATTTAAA | 0.629 |  | cleaved RNA product abundance [1]: 0.941 |

| Sequence | cleaved RNA product abundance [2] | cleaved RNA product abundance [3] | further results |
| --- | --- | --- | --- |
| ACAGACGAAGGAGCCGCAAAAAAGTTATGAAGGGATGAATAATCCCTCAATATAAATATCTCTCACTTATTTAAA | 0.453 |  |  |
| CGACATGTCCCGCTTCTTTCATTAATACGTTAGCAACTGTTTTGCTATATACATTTACCATTTAAGAGGAGGAAT |  | 0.353 |  |
| ACAGACGAAGGAGCCGCAAAGAAGTTATTAGGGGATTAATAATCCCTCAATATAAATATCTCTCACTTATTTAAA | 0.866 |  |  |
| ACAGACGAAGGAGCCGCAAAGAAGTTATTAAGGGAAGAATAATCCCTCATTATAAATATCTCTCACTTATTTAAA | 0.216 |  | cleaved RNA product abundance [1]: 0.208 |
| ACAGACGAAGGAGCCGCAAAGAAGTTCTTAAGGGAAGAATAATCCCTCAATATAAATATCTCTCACTTATTTAAA | 0.113 |  |  |
| CGACATGTCCCGCTTCTTTCATTAATCCGTTAGCAACTGTTTTGCTATATACATTTAACGTTTAAGAGGAGGAAT |  | 1.13 |  |
| ACAGACGAAGGAGCCGCAAAGAAGTTATTAAGGGATAAATACTCCCTCAATATAAATATCTCTCACTTATTTAAA | 0.534 |  | cleaved RNA product abundance [1]: 0.674 |
| ACAGACGAAGGAGCCGCAAAGAAGTTATTAAGGGACGAATAATCCTTCAATATAAATATCTCTCACTTATTTAAA | 0.217 |  | cleaved RNA product abundance [1]: 0.146 |
| CGACATGTCCCGCTTCTTTCATTAATCCGTTAGCACCTGTTTTGCTATATACATTTACCTTTTAAGAGGAGGAAT |  | 0.748 |  |
| ACAGACGAAGGAGCCGCAAAGAAGTTATTAAGGGATGAAGAATACCTCAATATAAATATCTCTCACTTATTTAAA | 0.106 |  |  |
| CGACATGTCCCGCTTCTTTCATTAATCCGTTAGCAACTCTTTTTCTATATACATTTACCTTTTAAGAGGAGGAAT |  | 0.642 |  |
| ACAGACGAAGGAGCCGCAAAGAAGTAATTAAGGGATGAATAATGCCTCAATATAAATATCTCTCACTTATTTAAA | 0.164 |  |  |
| CGACATGTCCCGCTTCTTTCATTAAACCGTAAGCAACTGTTTTGCTATATACATTTACCTTTTAAGAGGAGGAAT |  | 0.203 |  |
| ACAGACGAAGGAGCCGCAAAGAAGTTATTAAGGGATAAATAATCCCTCAATTTAAATATCTCTCACTTATTTAAA | 0.167 |  |  |
| CGACATGTCCCGCTTCTTTCATTAATCTGTTAGCAACTATTTTGCTATATACATTTACCTTTTAAGAGGAGGAAT |  | 1.77 |  |
| ACAGACGAAGGAGCCGCAAAGAAGTTATTAAGGGATGTATAATCCCTCCATATAAATATCTCTCACTTATTTAAA |  |  | cleaved RNA product abundance [1]: 0.162 |
| CGACATGTCCCGCTTCTTTCATTAATCCGTTAGCAACTTTTTTGCTATATACATTTACCATTTAAGAGGAGGAAT |  | 1.97 |  |
| ACAGACGAAGGAGCCGCAAAGAAGTTATTAAGGGTAGAATAATCCCTCAATATAAATATCTCTCACTTATTTAAA | 0.293 |  | cleaved RNA product abundance [1]: 0.172 |
| ACAGACGAAGGAGCCGCAAAGAAATTATTAAGGGATGACTAATCTCTCAATATAAATATCTCTCACTTATTTAAA | 0.582 |  |  |
| ACAGACGAAGGAGCCGCAAAGAAGCTATTAAGTGATGAATAATCCCTCAATATAAATATCTCTCACTTATTTAAA | 0.113 |  |  |
| CGACATGTCCCGCTTCTTTCATTAATCCGTTAGCACCTGTTTTGCTATATACAGTTACCTTTTAAGAGGAGGAAT |  | 0.393 |  |

| Sequence | cleaved RNA product abundance [2] | cleaved RNA product abundance [3] | further results |
| --- | --- | --- | --- |
| ACAGACGAAGGAGCCGCAAAGAAGTTATTAAGGTATGAATAATCCCTCAATATAATTATCTCTCACTTATTTAAA | 0.0923 |  |  |
| ACAGACGAAGGAGCCGCAAACAAGTTATTAAGGGAAGAATAATCCCTCAATATAAATATCTCTCACTTATTTAAA | 0.558 |  |  |
| ACAGACGAAGGAGCCGCAAATAAGTTATTAAGGGATGAATAATCCCTCACTATAAATATCTCTCACTTATTTAAA | 0.218 |  | cleaved RNA product abundance [1]: 0.193 |
| ACAGACGAAGGAGCCGCAAAGAAGTTATTAAGGGATGAATAATCCCACAAAATAAATATCTCTCACTTATTTAAA | 0.256 |  |  |
| CGACATGTCCCGCTTCTTTCATTAATCCGTTAGCAACTGTCTTACTATATACATTTACCTTTTAAGAGGAGGAAT |  | 0.324 |  |
| ACAGACGAAGGAGCCGCAAAGAAGTTATTAAGGGATGAATAATCTCTCAATATAAATTTCTCTCACTTATTTAAA | 0.708 |  |  |
| ACAGACGAAGGAGCCGCAAAGTAGTTATTAAGGGATGAATAAGCCCTCAATATAAATATCTCTCACTTATTTAAA | 0.448 |  |  |
| ACAGACGAAGGAGCCGCAAAGAAGTTATTAAGGTATGAATAATCCCTCCATATAAATATCTCTCACTTATTTAAA | 0.0967 |  |  |
| ACAGACGAAGGAGCCGCAAAGAAGTTTTAAGGGATGAATAATCCCTCAATATAAATATCTCTCACTTATTTAAAG | 0.15 |  |  |
| ACAGACGAAGGAGCCGCAAAGAAGTTATTAAGGGATGAAAAATCCCTCATTATAAATATCTCTCACTTATTTAAA | 0.331 |  | cleaved RNA product abundance [1]: 0.226 |
| CGACATGTCCCGCTTCTTTCATTAATCCGTTAGCAACAGTTTTGCTATATACATTTACGTTTTAAGAGGAGGAAT |  | 2.01 |  |
| ACAGACGAAGGAGCCGCAAAGAAGTAATTAAGGGGTGAATAATCCCTCAATATAAATATCTCTCACTTATTTAAA | 0.308 |  |  |
| ACAGACGAAGGAGCCGCAAAGAAATTATTAAGGGATGAATAATCCCTCAATATAAATATCTCTCACTTATTTAAA | 0.783 |  | cleaved RNA product abundance [1]: 0.826; cleaved RNA product abundance (experiment (reporter, strain, medium): exp 6: tetM reporter, strain 168, cleavage site: cggR-gapA (positions -7 to +36 mutated)): 0.759 |
| ACAGACGAAGGAGCCGCAAAGAAGTTATTAAAGGATGAATAATCCCTCAATTTAAATATCTCTCACTTATTTAAA | 0.0949 |  | cleaved RNA product abundance [1]: 0.088 |
| ACAGACGAAGGAGCCGCAAAGAAGTTATCAATGGATGAATAATCCCTCAATATAAATATCTCTCACTTATTTAAA | 0.146 |  |  |
| CGACATGTCCCGCTTCTTTCATTAATCCGTTTGCAACTGTTTTTCTATATACATTTACCTTTTAAGAGGAGGAAT |  | 0.768 |  |
| CGACATGTCCCGCTTCTTTCATTAATCCGTTAGCAACTATTTTGCCATATACATTTACCTTTTAAGAGGAGGAAT |  | 0.121 |  |
| ACAGACGAAGGAGCCGCAAAGAATTTATTAAGGGATGAAAAATCCCTCAATATAAATATCTCTCACTTATTTAAA | 0.35 |  | cleaved RNA product abundance [1]: 0.561 |
| CGACATGTCCCGCTTCTTTCATTACTCCGTTAGCAACTGTTTTGCTATATACATATACCTTTTAAGAGGAGGAAT |  | 0.767 |  |
